Data reported in patent US12344663B2, “Anti-C3 antibodies and antigen-binding fragments thereof and their uses for treating eye or ocular diseases” (CDR-Life AG, priority 2021, dated 2025).

Assay: In vitro BrM permeation assay, Ussing chamber
Format: in vitro ADME, porcine
Settings: 0.1 mg/ml, up to 72 h, in words
Method: Porcine Bruch's membrane samples are used for this measurement. Porcine eyes are collected from the slaughterhouse) no more than 6 hours after the animals were sacrificed and stored at 4° C. until use (on same day).
Preparation of enriched Bruch's Membrane (BrM): The eyes are placed into a disposable petri-dish and any residual tissue surrounding the eyeball is removed. The eyeball is incised next to the iris with a scalpel and the front part of the eye as well as lens, vitreous and retinal tissue are removed from the eyecup. […]
Sampling and membrane integrity analysis: For sampling at different timepoints (4 h, 24 h, 48 h and 72 h) the solution in the single compartments is mixed by carefully pipetting up and down and 90 μl were transferred separately from each sample and diffusate chamber to collection tubes. […] Accumulation of blue particles in the second compartment is observed and camera pictures are recorded to control for overall membrane integrity.
Sample analysis: 15 μl of each solution from the sample and diffusate chambers are effectively loaded on 2 precast polyacrylamide gels (NuPAGE Bis-Tris gels) together with a similar amount of stored mastermix as loading control. The first gel is analyzed by standard SDS-PAGE and Coomassie-based staining methods for protein detection (anti-C3 scFv). […]
Evaluation: Pictures of the SDS-gels are analyzed using ImageJ2 software (Fiji). […]

Substance: Gly-I-[CV-Trp(Me)-QDWGAHRC]-T-NH2 [Compound A2]
- Diffusion/penetration through porcine Bruch's membrane: No penetration
